These results are taken from patent US20120122128A1.

Experiment [1] has as its target T1, SNAP-25 peptide comprising amino acids 134-197 of SEQ ID NO: 5 (human). The experiment is described as follows: SPR (BIAcore 3000), peptide amine-coupled to CM5 chip, antibody as analyte, 1:1 fit. (In general: In SPR one partner is held on a chip, and binding of the other changes the refractive index at the surface.)
Experiment [2] deals with T1, SNAP-25 peptide comprising amino acids …. Description: SPR, comparison of the KD values of Table 9.
The target of experiment [3] is SNAP-25 peptide comprising amino acids 134-197 of SEQ ID NO: 5 (human). The experiment is described as follows: SPR (BIAcore 3000), peptide amine-coupled to CM5 chip, antibody as analyte, 1:1 fit. The source holds these as a separate data set.
Experiment [4] addresses T1, SNAP-25 peptide comprising amino acids …. The experiment is described as follows: SPR (BIAcore 3000), peptide amine-coupled to CM5 chip, antibody as analyte, 1:1 fit, first of two runs.
For experiment [5] the target is unchanged. Description: SPR (BIAcore 3000), peptide amine-coupled to CM5 chip, antibody as analyte, 1:1 fit, second independent run on another chip.
Experiment [6] has the same target. Description: SPR, comparison of the Kd values of Table 9.

Positions count from the first letter of the chain named.

B1: α-SNAP-25 monoclonal antibody 3C1A5 (antibody, V domains shown)
VH: VKLQESGAELVKPGASVKISCKASGYTFTDHSIHWVKQKPGQGLEWIGYLFPGNGNFEYNEKFKGKATLTADKSSSTVYMYLNSLTSEDSAVYFCKRMGYWGQGTTVTVSS
VL: DIKMTQSPSSMYASLGERVTITCKASQDIKSYLSWYQQKPWKSPKTLIYYATSLADGVPSRFSGSGSGQDYSLTISSLESDDTATYYCLQHGESPFTFGSGTKLEIKR
By Kd is commonly meant the equilibrium constant for the complex coming apart. The low end stands for higher affinity, the high end for lower affinity. In general, koff refers to the rate constant with which the complex falls apart. The low end stands for a long-lived complex, the high end for a short-lived complex. As usually defined, the kon is the second-order rate constant of association. Lower therefore signals slow association. In experiment [1], B1 yielded a Kd of 1.33 nM, a koff of 0.000288 s⁻¹ and a kon of 217000 M⁻¹ s⁻¹.

B2: α-SNAP-25 monoclonal antibody 1D3B8 (antibody, V domains shown)
VH: VKLQESGAELVKPGASVKISCKASGYIFTDHALHWVRQKPEQGLEWIGYIFPGNGNIEYNEKFKGKATLTADKSSSTAYMQLNSLTSGDSAMYFCKKMDYWGQGTTVTVSS
VL: DVLMTQTPLSLPVSLGDQASISCRSSQSIVHSNGNTYLEWYLQKPGQSPKLLIYKVSNRFSGVPDRFSGSGSGTDFTLKISRVEAEDLGVYYCFQGSHVPPTFGAGTKLELKR
As to B2, in experiment [1], the Kd was 0.05 nM, the dissociation rate constant (koff) was 5.78e-05 s⁻¹ and the kon was 1.06e+06 M⁻¹ s⁻¹. Also, the fold difference of equilibrium disassociation constant against MC-6050 and MC-6053 in experiment [2] worked out at 10 fold.

B3: α-SNAP-25 monoclonal antibody 2C9B10 (antibody, V domains shown)
VH: B1 VH with V78A, Y81H, R97K, G99D
VL: DIQMTQSPASLSASVGETVTITCRTTENIYSYFVWSQQRQGKSPQLRVYNAKSLAEGVPSSFNVSVSGTQFSLKINSLQPEDFGTYHCQHHYGTPYTFGGGTRLEIRR
With B3, in experiment [3], the equilibrium dissociation constant (Kd) was determined as 27.1 nM, the koff was determined as 0.000311 s⁻¹ and the kon was 11500 M⁻¹ s⁻¹.

B4: α-SNAP-25 monoclonal antibody 2E2A6 (antibody)
chain 1: QVQLQQSDAELVKPGASVKISCRASGYTFTDHSIHWVKQQPGQGLEWIGYIFPGNGNIEYNDKFKGKATLTADKSSGTAYMQLNSLTSEDSAVYFCKRMGYWGQGTSVTVSS
chain 2: DVLMTQTPLTLSVTIGQPASISCKSSQSLLYTNGKTYLTWLFQRPGQSPKRLIYLVSELDSGVPDRFSGSGSGTDFTLEITRVEAEDLGVYYCLQSAHFPFTFGSGTKLEIKR
In experiment [4], B4 returned a Kd of 0.09 nM, a dissociation rate constant (koff) of 0.000153 s⁻¹ and an on-rate (kon) of 1.7e+06 M⁻¹ s⁻¹. In experiment [5], this molecule had an equilibrium dissociation constant (Kd) of 0.405 nM, a koff of 6.74e-05 s⁻¹ and a kon of 166000 M⁻¹ s⁻¹. The fold slower off rate against MC-6050 and MC-6053 in experiment [6] is more than 1 fold.
